For assay [1], the target named is cynomolgus monkey IL-33 expressed with a C-terminal hexahistidine tag (cynomolgus monkey). In words: BLI; captured MfIL-33-6His, mAb-1 step with Buffer.
For assay [2] the target is unchanged. Briefly: BLI; captured MfIL-33-6His pre-complexed with mAb-1 H4H9667P. (In general: In BLI a coated tip is dipped into the sample, and binding shifts an interference pattern.)
For assay [3] the target is unchanged. In words: BLI; mAb-1 on captured MfIL-33-6His.
Assay [4] has the same target. In words: BLI; captured MfIL-33-6His pre-complexed with mAb-1 H1M9566N.
Assay [5] has the same target. In words: BLI; captured MfIL-33-6His pre-complexed with mAb-1 H1M9559N.
Assay [6] has the same target. In words: BLI; captured MfIL-33-6His pre-complexed with mAb-1 H4H9640P.
The target is the same in assay [7]. Briefly: BLI; captured MfIL-33-6His, mAb-1 step with Isotype control.
For assay [8] the target is unchanged. Briefly: BLI; captured MfIL-33-6His pre-complexed with mAb-1 H1M9565N.
For assay [9] the target is unchanged. In words: BLI; captured MfIL-33-6His pre-complexed with mAb-1 H4H9665P.
The target is the same in assay [10]. In words: BLI; captured MfIL-33-6His pre-complexed with mAb-1 H4H9664P.
The target in assay [11] is human IL-33 (R&D Systems, #3625-IL-010/CF) (human) (UniProt O95760). Briefly: BLI; hIL-33 pre-mixed with mAb-2 H4H9667P.
Chain of human IL-33 (R&D Systems, #3625-IL-010/CF) (human) (O95760 112-270 limits assumed): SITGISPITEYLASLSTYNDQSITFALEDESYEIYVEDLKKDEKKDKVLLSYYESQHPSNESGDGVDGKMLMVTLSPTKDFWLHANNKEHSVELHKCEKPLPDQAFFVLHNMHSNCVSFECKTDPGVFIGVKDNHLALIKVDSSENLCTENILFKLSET
For assay [12] the target is unchanged. Briefly: BLI; hIL-33 pre-mixed with mAb-2 H4H9676P.
The target is the same in assay [13]. In words: BLI; hIL-33 pre-mixed with mAb-2 H4H9670P.
For assay [14] the target is unchanged. In words: BLI; hIL-33 pre-mixed with mAb-2 H1M9559N.

Chain of cynomolgus monkey IL-33 expressed with a C-terminal hexahistidine tag (cynomolgus monkey) (chain, as listed by the source limits assumed): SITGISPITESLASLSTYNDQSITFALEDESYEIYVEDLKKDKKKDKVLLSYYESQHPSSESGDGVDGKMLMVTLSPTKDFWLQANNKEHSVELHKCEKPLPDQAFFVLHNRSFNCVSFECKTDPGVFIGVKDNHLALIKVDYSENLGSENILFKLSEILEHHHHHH

isotype control antibody: the mAb-2 Binding to the Pre-complex of mAb-1 & MfIL-33-6xHis in assay [1] stood at 0.03 nm; in assay [2], 0.03 nm; in [4], 0.04 nm; in [5], 0.01 nm; in assay [6], 0.02 nm; in assay [7] it was 0.01 nm. Further, the figures for the mAb-2 Binding to the Pre-complex of mAb-1 & MfIL-33-6xHis in [8], in [9] and in [10] were 0.04 nm, 0.03 nm and 0.02 nm, respectively. The same substance returned a mAb-1 Binding (nm) in assay [3] of 0.01 nm.
As for Isotype control 1 (antibody), the mAb-1 Binding to the Pre-complex of mAb-2 & hIL-33 in [11], in [12] and in [13] was 0.01 nm each time.
In turn, Isotype control 2 (antibody) showed a mAb-1 Binding to the Pre-complex of mAb-2 & hIL-33 in assay [14] of 0.02 nm.

These data come from patent US20160362487A1.
